Reference: the supplement of paper PMC9170038

Test system: MS2 coat protein
Test: apparent KD of MS2 coat protein; designed switch direction (-1 OFF switch, 1 ON switch): -1; higher = weaker reporter binding
Method in brief: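 RNA switches sharing common flanks were transcribed by stalled E. coli RNA polymerase on Illumina chips. A doubling series of SNAP-549-labelled MS2 coat protein, from 0.7 or 1.5 nM to 3 µM, was applied in Tris-HCl pH 7.5 buffer with KCl, MgCl2, BSA, DTT, tRNA and Tween-20. Each step lasted 0.8–1.5 h at the bottom of the series and 10–20 min at the top. Normalised cluster fluorescence was curve-fitted, giving apparent KD as the per-design median over clusters.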

[1] = input ligand: microRNA oligo, concentration not stated
[2] = Eterna round: R95, input ligand: FMN 200 uM
[3] = Eterna round: R95, input ligand: microRNA oligo, concentration not stated
[4] = Eterna round: R95, input ligand: none

Row | Sequence | apparent KD of MS2 coat protein (input ligand: FMN 200 uM) | apparent KD of MS2 coat protein [1] | apparent KD of MS2 coat protein (input ligand: none) | apparent KD of MS2 coat protein [2] | apparent KD of MS2 coat protein [3] | apparent KD of MS2 coat protein [4]
1 | CGAUAAAAGACAGGAUAUGAGGAGAGAGAGAGAUCAGAAGGGUCACAUGAGGAUCACCCAUGUGAGUUCUCGAUAAGAAAGAGG [Prohibition 52 - Jieux - Exclusion NG 1] (Eterna round: R96, puzzle: Exclusion NG 1) | 19.3 nM | 14.6 nM | 21 nM | – | – | –
2 | UGAGAGUGAGGAUAUACGUCGCUGGUCCAGAUGGACGCAUGACAUGAGGAUCACCCAUGUAGAAGGCAUUUCCC [Enxela Mod 8 - Jieux - Exclusion 2] (Eterna round: R97, puzzle: Exclusion 2) | 61.9 nM | – | 28.4 nM | – | – | –
3 | UGAGUGCUGCGAGGAUAUACAUGAGGAUCACCCAUGUUUUCGUGUGAGGCAAAGCCUCACACGAUGUAGAAGGCGCAGUACUCU [Mat - Exclusion NG 2 - Mod of JL - D35] (Eterna round: R96, puzzle: Exclusion NG 2) | 13.2 nM | 10.7 nM | 16.1 nM | – | – | –
4 | UGGCUGCUCAGGGAGUGUGACAUGAGGAUCACCCAUGUGGUAGUAAGGAACAAGCUUUUUGCACGUACUUAUGGGUC [JR_SV3TOV1_Sub010] (puzzle: Sensor v3, turn-off variant 1) | – | – | – | 268 nM | 204 nM | 375 nM
5 | GGUCGGCGAGGAUAUACAUGAGGAUCACCCAUGUGAUUUAGUGCACGCGUACGUGUACGUAGAAGGCGCUGACG [JL-ex3-3.27 salish99 mod] (puzzle: Exclusion 3) | – | – | – | 127 nM | 14 nM | 11.3 nM
6 | CUUUUGUGAGGAUAUUAGUAGUAAUACAAUAGUAUUACUACUGAGAAGGCACAUGAGGAUCACCCAUGUUCCUC [Ex4 344 Omei mod 5] (puzzle: Exclusion 4) | – | – | – | – | 36.5 nM | –
7 | GCAAGCUUUUGCUCGGCUUACAUGAGGAUCACCCAUGUGGGCCCGGGCCCGGGCCCGCCGGGCCCGGGCCCGGGCCC [-58.5, -80.7, A 10%] (Eterna round: R97, puzzle: Sensor, turn-off variant 1) | 24.4 nM | – | 25.4 nM | – | – | –
8 | CCGCGUACAGGAUAUCCAUCUGGAUCAGACAAGAUCCUGAUGGAGAAGGGACAUGAGGAUCACCCAUGUUGCGG [Mat - Exclusion 4 - Eli Mod - D54] (Eterna round: R97, puzzle: Exclusion 4) | 19 nM | – | 19.3 nM | – | – | –
9 | CUUAACUCAGGAUAUGCGGCGACAAACAUGAGGAUCACCCAUGUAAAUUGGUGAACCUGAGCAGAAGGGAGUACAA [EX5 B.2] (Eterna round: R97, puzzle: Exclusion 5) | 66.4 nM | – | 22.6 nM | – | – | –
10 | UUAAUUAGCAGGCAAGAUCAUUACAUGAGGAUCACCCAUGUCGAGGAUAUCAGCUCGAUUAGAGCUGAGAAGGCGACAGCCUGC [ExNG3/13-A1] (Eterna round: R96, puzzle: Exclusion NG 3) | 1540 nM | 443 nM | 382 nM | – | – | –
11 | CCCUCAAGCGAGGAUAUAAAUGCGCAUUCGCGGUUAGAAGGCGCUACAUGAGGAUCACCCAUGUAAUUAAAUGG [jl-ex6-4.51 ViennaUCT mod] (Eterna round: R97, puzzle: Exclusion 6) | 128 nM | – | 52.6 nM | – | – | –
12 | GUAUAACAUGUAGGAUAUGCGUGGCGAAGCUAUGCAGAAGGACAUGAGGAUCACCCAUGUUAUAGCGUCUGCGUACAGAUGCUA [Mat - Exclusion NG 1 - Mod of JL - D93] (Eterna round: R96, puzzle: Exclusion NG 1) | 204 nM | 26.2 nM | 24.5 nM | – | – | –
13 | ACAUGUAAUGCAGGAUAUGGGACACAUGAGGAUCACCCAUGUGACCAGAGGUAAUGCUAAGAGUCUCAGAAGGGUAUGUACAUG [Ex NG2 #49] (Eterna round: R96, puzzle: Exclusion NG 2) | 22.5 nM | 14.5 nM | 19 nM | – | – | –
14 | AUAAAUCAUGUAGGAUAUGCGUGGCGAAGCUAUGCAGAAGGACAUGAGGAUCACCCAUGUCUUUCCGUCUGCGUACAGACGGAA [Mat - Exclusion NG 1 - Mod of JL - D41] (Eterna round: R96, puzzle: Exclusion NG 1) | 289 nM | 23.6 nM | 24.5 nM | – | – | –
15 | AACGUACAGCAAAGCUGUACGCGUACAUGAGGAUCACCCAUGUAGGAUAUGGUAGGCAAAGCUUACUAGAAGGAUAGAGUGAUC [Mat - Exclusion NG 3 - Mod of JL - D77] (Eterna round: R96, puzzle: Exclusion NG 3) | 497 nM | 358 nM | 333 nM | – | – | –
16 | AGUAUAAUGUACGUGCACCACUUACAUGAGGAUCACCCAUGUUAGGAUAUCGAGCCUUUCUGGCUCGAGAAGGGACUCUUCGGG [Eternabot solution 18] (Eterna round: R96, puzzle: Exclusion NG 3) | 33.2 nM | 22.9 nM | 29.1 nM | – | – | –

Row | Sequence | apparent KD of MS2 coat protein (input ligand: FMN 200 uM) | apparent KD of MS2 coat protein [1] | apparent KD of MS2 coat protein (input ligand: none) | apparent KD of MS2 coat protein [2] | apparent KD of MS2 coat protein [3] | apparent KD of MS2 coat protein [4]
17 | GACCGGACGUGGUCAGGUAACAUGAGGAUCACCCAUGUAGGUCUAAGAACAAGCCUUUUGUACGCUCGUCUUAUAUU [JR_SV3TOV1_Sub060] (puzzle: Sensor v3, turn-off variant 1) | – | – | – | 46.1 nM | 46.8 nM | 55.8 nM
18 | GACCUACAUGAGGAUCACCCAUGUGAGGAUAUAUUGUUAUUUAUAAUAUUUUUUAGUGGUAGAAGGCGCGUGAU [JR_Exc1_Sub018] (Eterna round: R97, puzzle: Exclusion 1) | 17.9 nM | – | 20.2 nM | – | – | –
19 | CCAGCGUGUGUGAGGAUAUGCUGGUCCUUGGAUCAGCAGAAGGCACAUGAGGAUCACCCAUGUGAGAGCGUUGG [JL bmx4 3.36] (puzzle: Brourd's mod of Exclusion 4) | – | – | – | – | 20.7 nM | –
20 | UUAUUAUAUGUAGGAUAUGCAUAUUGUUGUUAUGCAGAAGGACAUGAGGAUCACCCAUGUAUAUUAUUGUUGUAUAUUAUAUAU [Title] (Eterna round: R96, puzzle: Exclusion NG 1) | 37.4 nM | 17.5 nM | 24.1 nM | – | – | –
21 | UUUAAACAUGAGGAUCACCCAUGUUAGGAUAUACGCAUGCAGACACGCACGGAUGCAAGUAGAAGGAACCAUGC [Design #6] (Eterna round: R97, puzzle: Exclusion 1) | 27.9 nM | – | 31.3 nM | – | – | –
22 | AGCGUGGAGACAGGAUAUGAGAAUAGAUAGAAAUCAGAAGGGUCACAUGAGGAUCACCCAUGUAAAGUCUUGAGGAUGAGUGAU [Prohibition 3 - Jieux - Exclusion NG 1] (Eterna round: R96, puzzle: Exclusion NG 1) | – | 70.4 nM | – | – | – | –
23 | CGCGUUUAUGUAGGAUAUGCCUGGCGUGCCUUAGCAGAAGGACAUGAGGAUCACCCAUGUAACAUGAGGCUCACCCAUGUCGCA (Eterna round: R96, puzzle: Exclusion NG 1) | 201 nM | 120 nM | 167 nM | – | – | –
24 | AAGAAACAUGAGGAUCACCCAUGUGAGGAUAUGACUAAGAAAAGAAAAGAAAGAAGAGUCAGAAGGCACAAAGG [salish99-ex1_r3_068] (puzzle: Exclusion 1) | – | – | – | 215 nM | 128 nM | 189 nM
25 | UGAGUGCUGCGAGGAUAUACAUGAGGAUCACCCAUGUGGUCCUGUGAGGCUUUGCCUCACAGGAUGUAGAAGGCGCAGUACUCU [JL ENG2 1.18] (Eterna round: R96, puzzle: Exclusion NG 2) | 82.9 nM | 13.8 nM | 17.4 nM | – | – | –
26 | UUUGCAAGCUUAAGAUCCCACAUGAGGAUCACCCAUGUUGCUGCCGUGAGGUAGCUUUUAACUUAUGCUCGUCUUAU [JL TOV1 3.46] (Eterna round: R97, puzzle: Sensor, turn-off variant 1) | 95.7 nM | – | 115 nM | – | – | –
27 | UUUUGGCAUGUAGGAUAUGGGUCCGAUUAGGAUUUAGAAGGACAUGAGGAUCACCCAUGUGCAUUUAAUUGGUCAUUACCUUUU [EXclNG1-LROPPY11] (Eterna round: R96, puzzle: Exclusion NG 1) | – | 65.5 nM | – | – | – | –
28 | CCGGAAAGGAAGGAUAUGCUAGACGAGAGUCUAGCAGAAGGUCCUACAUGAGGAUCACCCAUGUGGUCCUCCGG [Mat - Exclusion 6 - Eli Mod - D34] (Eterna round: R97, puzzle: Exclusion 6) | 252 nM | – | 1270 nM | – | – | –
29 | GCAGCUAACACAGAUAUGUGGACAUGAGGAUCACCCAUGUCACAGGAUAUGGACUGGAUUACAGUCCAGAAGGGUGAAUGCUGC [Zipper Style 5] (Eterna round: R96, puzzle: Exclusion NG 3) | 8.25 nM | 10.8 nM | 14.2 nM | – | – | –
30 | CAGUACUGAGGAUAUACAUGAGGAUCACCCAUGUGAGAAAUACUAAUGAGGUCGAUUAGUAGAAGGCAGUACUG [Mat - Exclusion 3 - Eli Mod - D32] (Eterna round: R97, puzzle: Exclusion 3) | 255 nM | – | 19.7 nM | – | – | –
31 | GAAAAGGUAGGAUAUACGAUAAGAAAGGGUAGAUAAUAAACACAUGAGGAUCACCCAUGUAGAAGGACCAAAAG [salish99_ex2_r3_102] (puzzle: Exclusion 2) | – | – | – | 139 nM | 35.4 nM | 39.7 nM
32 | UUAUGAGAGCAGGAUAUCUUAUUUUUUUUUUGUGGAGAAGGGCUCACAUGAGGAUCACCCAUGUGGUCCUAGAU [LRO-Excl6-25-mod of 4.86 by jal] (Eterna round: R97, puzzle: Exclusion 6) | 47.4 nM | – | 32.9 nM | – | – | –
